Values of other authors in PMC5141497.
Where two headings read alike, the source gives them in different places.

How the values were obtained:
[1] = molecular target: Did2 MIM1 (Saccharomyces cerevisiae) (UniProt P69771)
[2] = molecular target: Vps2 MIM1 (Saccharomyces cerevisiae) (UniProt P36108)
[3] = molecular target: Did2 MIM1 (Saccharomyces cerevisiae) (UniProt P69771); remark: listed apart in the source

Sequence of Vps4 MIT (P52917 1-83): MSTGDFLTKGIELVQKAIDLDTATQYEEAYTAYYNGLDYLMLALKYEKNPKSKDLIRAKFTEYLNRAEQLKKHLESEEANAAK
Sequence of Did2 MIM1 (Saccharomyces cerevisiae) (P69771 176-204): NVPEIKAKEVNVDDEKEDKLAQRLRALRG
Sequence of Ist1 NTD (P53843 1-193): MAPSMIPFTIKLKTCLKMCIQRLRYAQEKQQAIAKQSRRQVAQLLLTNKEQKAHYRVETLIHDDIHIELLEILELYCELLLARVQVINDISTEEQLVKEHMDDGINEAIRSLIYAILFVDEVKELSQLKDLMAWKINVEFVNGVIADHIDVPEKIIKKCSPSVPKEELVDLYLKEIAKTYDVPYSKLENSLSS
Sequence of Vps2 MIM1 (Saccharomyces cerevisiae) (P36108 183-232): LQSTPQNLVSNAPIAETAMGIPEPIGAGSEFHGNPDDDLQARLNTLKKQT

Substance | Kd [1] [µM] | Kd [2] [µM] | Kd [3] [µM]
Ist1 NTD (from UniProt P53843) | 1 | – | –
Vps4 MIT (from UniProt P52917) | – | 28 | 39
